The target of assay [1] is T1, PPAR-RXR complex (Homo sapiens, UniProt P37231).
T1 sequence (P37231 1-505): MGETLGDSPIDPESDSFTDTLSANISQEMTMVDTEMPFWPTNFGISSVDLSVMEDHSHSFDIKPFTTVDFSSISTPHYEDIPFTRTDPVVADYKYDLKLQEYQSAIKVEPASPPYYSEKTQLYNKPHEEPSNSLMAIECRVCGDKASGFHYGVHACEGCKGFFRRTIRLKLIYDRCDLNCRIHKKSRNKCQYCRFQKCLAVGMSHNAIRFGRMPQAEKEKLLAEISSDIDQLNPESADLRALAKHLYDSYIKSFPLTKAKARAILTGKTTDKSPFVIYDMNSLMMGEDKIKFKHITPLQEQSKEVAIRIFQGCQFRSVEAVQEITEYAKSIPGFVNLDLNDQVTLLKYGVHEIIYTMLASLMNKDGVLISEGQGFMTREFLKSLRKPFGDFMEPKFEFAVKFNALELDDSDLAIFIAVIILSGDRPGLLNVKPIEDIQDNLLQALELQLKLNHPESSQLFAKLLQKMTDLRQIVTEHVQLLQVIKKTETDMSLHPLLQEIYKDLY
T1 sequence (P19793 1-462 partner): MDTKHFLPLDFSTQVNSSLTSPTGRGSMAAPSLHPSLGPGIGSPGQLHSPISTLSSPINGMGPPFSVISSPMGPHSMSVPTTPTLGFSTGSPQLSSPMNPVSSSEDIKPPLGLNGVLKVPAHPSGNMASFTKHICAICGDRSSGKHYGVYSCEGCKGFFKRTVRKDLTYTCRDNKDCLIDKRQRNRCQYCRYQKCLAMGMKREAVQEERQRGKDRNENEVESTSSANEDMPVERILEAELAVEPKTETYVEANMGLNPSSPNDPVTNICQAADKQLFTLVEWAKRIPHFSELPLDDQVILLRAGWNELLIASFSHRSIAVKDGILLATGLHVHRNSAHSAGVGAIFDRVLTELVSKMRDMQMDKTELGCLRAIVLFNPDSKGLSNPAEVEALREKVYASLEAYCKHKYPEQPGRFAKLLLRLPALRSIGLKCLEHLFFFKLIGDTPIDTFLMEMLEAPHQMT
Nature of the assay: Formation of the PPAR-RXR complex. Type of assay: cell-based. The settings on record: overexpression, FIG. 8C.

Assay [2] concerns the target T2, PPARγ2 (Homo sapiens, UniProt P37231).
T2 construct: endogenous in cells; host or cells: HEK-293T
T2 sequence (P37231 1-505): T1 sequence (P37231 1-505)
Nature of the assay: aP2 promoter luciferase reporter, transcriptional activity of PPARγ2 in HEK-293T cells. The settings on record: for transcriptional activity of PPARγ2: overexpressed according to concentration, concentration-dependent manner, FIG. 1B/1C; for transcriptional activity of PPARγ2 (activity of the aP2 promoter): overexpression of 14-3-3 isoform proteins (0.5 μg), HEK-293T, 10 μM pioglitazone 24 hours, FIG. 1A. The assay is classed as cell-based. Here is the method: The transcriptional activity of PPARγ2 plays a vital role in expression of liver diseases-associated proteins. Thus, the transcriptional activity of PPARγ2 was measured using an aP2 promoter regulated by PPARγ2, and the role of 7 types of 14-3-3 proteins was investigated.
For this, HEK-293T cells were seeded in a 12-well plate at a density of 1×10^5 cells per each well, and then transfected with an aP2 promoter construct (0.5 μg) and 14-3-3 isoform proteins (α, β, γ, δ, ε, ζ, η, θ) (0.5 μg) or si-14-3-3β and si-14-3-3γ siRNA (5 nM and 10 nM, Santa Cruz) using an E-fection plus reagent (Lugen). A ratio of DNA to the E-fection plus reagent was 1:2, and this method was performed according to a manufacturer's manual. After transfection, the corresponding cells were treated with 10 μM of pioglitazone (Pio, Santa Cruz) for 24 hours, washed with ice-cold PBS, and lysed using 80 μl/well of a reporter lysis buffer (Promega, Madison, Wis.), and the lysed cells were centrifuged at 10,000×g and 4° C. for 10 minutes to collect a supernatant, and luciferase activity was measured. As an instrument, Luminometer 20/20n (Turner Biosystems, Sunnyvale, Calif.) was used. For normalization, the cells were cotransfected with pSV40-β-galactosidase. For the collected supernatant, β-galactosidase activity was measured and the luciferase activity was revised, and the obtained values were plotted. At this time, a β-galactosidase enzyme analysis system (Promega, Madison, Wis.) was used, and analysis was performed using a DU530 spectrophotometer (Beckman Instruments, Palo Alto, Calif.).

For assay [3], the target named is T3, PPARγ2 deletion mutant (139-505) (Homo sapiens, UniProt P37231).
T3 construct: Flag-PPARγ2 (139-505) DNA (4 μg); expressed in transfected cells; host or cells: HEK-293T
T3 sequence (P37231 139-505): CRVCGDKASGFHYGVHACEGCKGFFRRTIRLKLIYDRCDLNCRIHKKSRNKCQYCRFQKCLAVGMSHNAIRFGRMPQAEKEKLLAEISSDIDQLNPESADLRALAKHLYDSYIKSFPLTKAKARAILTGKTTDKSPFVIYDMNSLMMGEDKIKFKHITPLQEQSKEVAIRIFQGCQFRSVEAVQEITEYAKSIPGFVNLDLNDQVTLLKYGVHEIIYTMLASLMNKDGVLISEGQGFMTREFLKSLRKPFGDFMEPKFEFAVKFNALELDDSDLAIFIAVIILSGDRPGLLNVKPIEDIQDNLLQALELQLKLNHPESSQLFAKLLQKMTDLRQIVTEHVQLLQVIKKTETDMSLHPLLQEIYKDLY
The assay can be described thus: GST-pull down assay with PPARγ2 deletion mutant (139-505). The assay is classed as binding. As to conditions: FIG. 3B/3C. Here is the method:
HEK-293T cells were seeded in a 100 mm plate at a density of 2×10^6 cells per each well, and then transfected with Flag-PPARγ2 (1-505) DNA (4 μg), Flag-PPARγ2 (1-310) DNA (4 μg), Flag-PPARγ2 (139-505) DNA (4 μg), and mGST-14-3-3β (4 μg) or mGST-14-3-3γ (4 μg) using an E-fection plus reagent (Lugen). For Flag-PPARγ2 (1-310) DNA and Flag-PPARγ2 (139-505) DNA, DNA fragments amplified through polymerase chain reaction (PCR) were cloned into a pCMV-3Tag-1 vector using restriction enzymes XhoI and ApaI. A ratio of DNA to the E-fection plus reagent was 1:2, and this method was performed according to a manufacturer's manual. The corresponding cells were washed with ice-cold PBS and lysed using 500 μl/well of a lysis buffer (150 mM NaCl, 1 mM EDTA, 1% Nonidet P-40, 5% glycerol, 25 mM tris-HCl, pH 7.5, protease inhibitor added), and the lysed cells were centrifuged at 10,000×g and 4° C. for 10 minutes to extract proteins. Thereafter, 1,000 μg of the proteins was reacted with 20 μl of glutathione Sepharose 4B beads (GE Healthcare, Buckinghamshire, UK) for 6 hours, and then washing of the beads with 1 ml of ice-cold PBS was repeated 5 times, and the beads were boiled at 100° C. for 10 minutes, followed by 10% SDS-PAGE gel separation and western blotting. A ratio of GST antibodies (Santa Cruz) to Flag antibodies (Santa Cruz) was 1:3000. […]

Take “14-3-3β: 14-3-3 isoform protein overexpressed by DNA transfection; increases the transcriptional activity of PPARγ2 by binding to PPARγ2”: the “formation of the PPAR-RXR complex” value in assay [1] is given as “did not affect”. In addition, in assay [2], the “transcriptional activity of PPARγ2” value was “increased” and the “transcriptional activity of PPARγ2 (activity of the aP2 promoter)” value is given as “increased”. The “binding to PPARγ2 deletion mutant (139-505)” value in assay [3] is on record as “bound”.
As for “14-3-3γ: 14-3-3 isoform protein overexpressed by DNA transfection; decreases the transcriptional activity of PPARγ2; proposed active ingredient”, the “formation of the PPAR-RXR complex” value in assay [1] is listed as “did not affect”. Also, in assay [2], the “transcriptional activity of PPARγ2” value is “reduced” and the “transcriptional activity of PPARγ2 (activity of the aP2 promoter)” value was “decreased”. Moreover, in assay [3], the “binding to PPARγ2 deletion mutant (139-505)” value was “bound”.
